Assay [1] deals with T1, PSMA胞外区蛋白 (重组表达的前列腺特异性膜抗原膜外区) (UniProt Q04609 44-750).
T1 construct: extracellular domain; also called PSMA蛋白; PSMA抗原; not shown: His tag from vector pRAG2a (HisTrap purification, detected with His antibody)
Description: indirect phage ELISA, PSMA extracellular domain coated at 5 μg/mL, HRP-anti-M13 detection.

Assay [2] has as its target T2, 前列腺特异性膜抗原 (PSMA) on LNCaP cells (UniProt Q04609 1-750, limits assumed).
T2 construct: whole, on cells; Cells were fixed with 4% paraformaldehyde before the assay; also called prostate specific membrane antigen
The assay is described as follows: cell ELISA (HRP-anti-M13, OD450) and immunofluorescence on fixed LNCaP cells (PSMA+) against MKN45 cells (PSMA-).

T1 sequence (Q04609 44-750): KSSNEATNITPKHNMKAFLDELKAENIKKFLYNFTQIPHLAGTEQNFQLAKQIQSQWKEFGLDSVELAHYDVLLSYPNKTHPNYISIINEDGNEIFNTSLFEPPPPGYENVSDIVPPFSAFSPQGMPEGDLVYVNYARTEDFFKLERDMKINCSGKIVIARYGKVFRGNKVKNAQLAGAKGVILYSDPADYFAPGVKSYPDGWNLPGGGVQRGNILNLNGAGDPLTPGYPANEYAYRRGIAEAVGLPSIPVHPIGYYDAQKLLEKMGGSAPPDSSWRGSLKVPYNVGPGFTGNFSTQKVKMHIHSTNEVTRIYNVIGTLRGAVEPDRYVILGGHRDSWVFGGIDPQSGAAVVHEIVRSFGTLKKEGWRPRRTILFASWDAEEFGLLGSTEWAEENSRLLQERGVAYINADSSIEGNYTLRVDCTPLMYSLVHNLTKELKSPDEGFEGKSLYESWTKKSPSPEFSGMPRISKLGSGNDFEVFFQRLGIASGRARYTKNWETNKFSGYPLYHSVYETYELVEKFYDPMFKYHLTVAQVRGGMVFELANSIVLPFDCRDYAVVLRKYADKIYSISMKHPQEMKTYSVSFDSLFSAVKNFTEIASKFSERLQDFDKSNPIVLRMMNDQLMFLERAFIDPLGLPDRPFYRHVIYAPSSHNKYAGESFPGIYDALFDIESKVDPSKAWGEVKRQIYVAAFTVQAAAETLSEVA
T2 sequence (Q04609 whole entry): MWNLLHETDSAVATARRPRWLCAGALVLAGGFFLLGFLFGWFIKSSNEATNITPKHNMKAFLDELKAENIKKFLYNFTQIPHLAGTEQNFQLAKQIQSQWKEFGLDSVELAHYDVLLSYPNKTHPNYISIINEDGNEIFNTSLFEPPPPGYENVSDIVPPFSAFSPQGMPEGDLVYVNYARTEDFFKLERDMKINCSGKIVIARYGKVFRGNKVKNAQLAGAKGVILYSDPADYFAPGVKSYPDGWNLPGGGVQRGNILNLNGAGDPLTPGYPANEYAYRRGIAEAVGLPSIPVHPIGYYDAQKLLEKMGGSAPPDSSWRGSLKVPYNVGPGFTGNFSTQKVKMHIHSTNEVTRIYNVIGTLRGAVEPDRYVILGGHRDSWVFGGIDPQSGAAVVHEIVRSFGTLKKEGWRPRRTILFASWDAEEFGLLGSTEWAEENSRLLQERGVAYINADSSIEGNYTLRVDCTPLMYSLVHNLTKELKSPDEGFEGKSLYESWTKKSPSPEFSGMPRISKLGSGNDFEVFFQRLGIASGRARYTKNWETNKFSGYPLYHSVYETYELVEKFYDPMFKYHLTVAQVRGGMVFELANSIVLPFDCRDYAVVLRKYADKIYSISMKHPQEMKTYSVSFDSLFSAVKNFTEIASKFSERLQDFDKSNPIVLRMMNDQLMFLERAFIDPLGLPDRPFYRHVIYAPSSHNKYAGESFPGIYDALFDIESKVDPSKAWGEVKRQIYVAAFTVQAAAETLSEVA

B1: 抗前列腺特异性膜抗原单域重链抗体噬菌体阳性克隆 (VHH, not shown: large carriers)
VHH: QLQLVESGGGLVQAGGSLRLSCVVSGRPFSRYTMGWFRQAPGKERELVATIWRRGNTYYANYADAVTGRFTISRDNAKNTAYLQMNSLELEDTAIYYCAAGRTSWGQNPSEYGYWGQGTQVTVSS
notes: also called 针对前列腺特异性膜抗原的单域重链抗体阳性克隆; 展示本发明所述纳米抗体的噬菌体克隆
As for B1, the binding result in assay [1] and in assay [2] was “binds” in each case.

Values taken from CN105524171A (UNIV PLA 3RD MILITARY MEDICAL, dated 2016).
